B1: INTS3 (parent)
chain: KKREFRFHPIKETVVEEPVDITPY

Variants of: B1
Experiment: protein stability index of a GFP-peptide fusion (GPS, HEK-293T) (PSI 1-6); higher = more stable
Conditions: c terminus: a fixed tail appended
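Note: lentivirally expressed fusions sorted by FACS into six bins by GFP to DsRed ratio, PSI derived from sequencing read proportions per bin multiplied by bin number.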

Q: For KKREDRFHPIKETVVEEPVDITPY [F5D], which protein stability index is on record?
A: 4.4

Q: With KKREGRFHPIKETVVEEPVDITPY [F5G] as the variant, how does the protein stability index read?
A: 4.34

Q: For KKREKRFHPIKETVVEEPVDITPY [F5K], which protein stability index is on record?
A: 4.75

Q: With KKREMRFHPIKETVVEEPVDITPY [F5M] as the variant, how does the protein stability index read?
A: 4.36

Q: For KKRENRFHPIKETVVEEPVDITPY [F5N], which protein stability index is on record?
A: 4.53

Q: Which protein stability index does the source give for KKREYRFHPIKETVVEEPVDITPY [F5Y] here?
A: 3.92

Q: For KKREPRFHPIKETVVEEPVDITPY [F5P], which protein stability index is on record?
A: 4.18

Q: Which protein stability index does the source give for KKREIRFHPIKETVVEEPVDITPY [F5I] here?
A: 4.06

Q: With KKREHRFHPIKETVVEEPVDITPY [F5H] as the variant, how does the protein stability index read?
A: 4.36

Q: Which protein stability index does the source give for KKRESRFHPIKETVVEEPVDITPY [F5S] here?
A: 4.45

Q: For KKREVRFHPIKETVVEEPVDITPY [F5V], which protein stability index is on record?
A: 4.63

Q: For KKREERFHPIKETVVEEPVDITPY [F5E], which protein stability index is on record?
A: 4.8

Q: With KKREWRFHPIKETVVEEPVDITPY [F5W] as the variant, how does the protein stability index read?
A: 2.56

Q: Which protein stability index does the source give for KKREQRFHPIKETVVEEPVDITPY [F5Q] here?
A: 4.37

Q: For KKRETRFHPIKETVVEEPVDITPY [F5T], which protein stability index is on record?
A: 4.52

Q: For KKREARFHPIKETVVEEPVDITPY [F5A], which protein stability index is on record?
A: 4.36

Q: Which protein stability index does the source give for KKRECRFHPIKETVVEEPVDITPY [F5C] here?
A: 4.39

Q: Which protein stability index does the source give for KKREFRFAPIKETVVEEPVDITPY [H8A] here?
A: 3.27

Q: With KKQEFRFHPIKETVVEEPVDITPY [R3Q] as the variant, how does the protein stability index read?
A: 1.89

Q: With KKCEFRFHPIKETVVEEPVDITPY [R3C] as the variant, how does the protein stability index read?
A: 2.35

Q: With KKGEFRFHPIKETVVEEPVDITPY [R3G] as the variant, how does the protein stability index read?
A: 1.72

Q: With KKLEFRFHPIKETVVEEPVDITPY [R3L] as the variant, how does the protein stability index read?
A: 1.61

Q: Which protein stability index does the source give for KKPEFRFHPIKETVVEEPVDITPY [R3P] here?
A: 1.66

Q: For KKWEFRFHPIKETVVEEPVDITPY [R3W], which protein stability index is on record?
A: 1.44

Q: Which protein stability index does the source give for KKSEFRFHPIKETVVEEPVDITPY [R3S] here?
A: 1.66

Q: Which protein stability index does the source give for KKNEFRFHPIKETVVEEPVDITPY [R3N] here?
A: 1.76

Q: For KKYEFRFHPIKETVVEEPVDITPY [R3Y], which protein stability index is on record?
A: 2.25

Q: Which protein stability index does the source give for KKVEFRFHPIKETVVEEPVDITPY [R3V] here?
A: 1.92

Q: With KKHEFRFHPIKETVVEEPVDITPY [R3H] as the variant, how does the protein stability index read?
A: 2.14

Q: For KKEEFRFHPIKETVVEEPVDITPY [R3E], which protein stability index is on record?
A: 2.74

Q: With KKFEFRFHPIKETVVEEPVDITPY [R3F] as the variant, how does the protein stability index read?
A: 1.62

Q: For KKTEFRFHPIKETVVEEPVDITPY [R3T], which protein stability index is on record?
A: 1.73

Q: Which protein stability index does the source give for KKIEFRFHPIKETVVEEPVDITPY [R3I] here?
A: 2.25

Q: Which protein stability index does the source give for KKDEFRFHPIKETVVEEPVDITPY [R3D] here?
A: 2.84

Q: Which protein stability index does the source give for KKAEFRFHPIKETVVEEPVDITPY [R3A] here?
A: 1.82

Q: With KKMEFRFHPIKETVVEEPVDITPY [R3M] as the variant, how does the protein stability index read?
A: 1.43

Q: With KKKEFRFHPIKETVVEEPVDITPY [R3K] as the variant, how does the protein stability index read?
A: 2.46

Q: For KKREFRDHPIKETVVEEPVDITPY [F7D], which protein stability index is on record?
A: 4.43

Q: Which protein stability index does the source give for KKREFREHPIKETVVEEPVDITPY [F7E] here?
A: 4.62

Q: With KKREFRYHPIKETVVEEPVDITPY [F7Y] as the variant, how does the protein stability index read?
A: 2.84

Q: With KKREFRAHPIKETVVEEPVDITPY [F7A] as the variant, how does the protein stability index read?
A: 4.76

Q: For KKREFRMHPIKETVVEEPVDITPY [F7M], which protein stability index is on record?
A: 4.4

Q: Which protein stability index does the source give for KKREFRKHPIKETVVEEPVDITPY [F7K] here?
A: 4.39

Q: With KKREFRGHPIKETVVEEPVDITPY [F7G] as the variant, how does the protein stability index read?
A: 4.71

Q: For KKREFRQHPIKETVVEEPVDITPY [F7Q], which protein stability index is on record?
A: 4.24

Q: For KKREFRWHPIKETVVEEPVDITPY [F7W], which protein stability index is on record?
A: 3.25

Q: With KKREFRCHPIKETVVEEPVDITPY [F7C] as the variant, how does the protein stability index read?
A: 4.26

Q: Which protein stability index does the source give for KKREFRPHPIKETVVEEPVDITPY [F7P] here?
A: 4.58

Q: For KKREFRHHPIKETVVEEPVDITPY [F7H], which protein stability index is on record?
A: 4.63

Q: For KKREFRIHPIKETVVEEPVDITPY [F7I], which protein stability index is on record?
A: 4.23

Q: Which protein stability index does the source give for KKREFRRHPIKETVVEEPVDITPY [F7R] here?
A: 4.6

Q: Which protein stability index does the source give for KKREFRTHPIKETVVEEPVDITPY [F7T] here?
A: 4.79

Q: For KKREFRLHPIKETVVEEPVDITPY [F7L], which protein stability index is on record?
A: 4.21

Q: With KKREFRVHPIKETVVEEPVDITPY [F7V] as the variant, how does the protein stability index read?
A: 4.65

Q: With KKREFRSHPIKETVVEEPVDITPY [F7S] as the variant, how does the protein stability index read?
A: 4.74

Q: With KKREFRNHPIKETVVEEPVDITPY [F7N] as the variant, how does the protein stability index read?
A: 4.91

Q: With KKREFGFHPIKETVVEEPVDITPY [R6G] as the variant, how does the protein stability index read?
A: 4.57

Q: Which protein stability index does the source give for KKREFMFHPIKETVVEEPVDITPY [R6M] here?
A: 4.02

Q: Which protein stability index does the source give for KKREFVFHPIKETVVEEPVDITPY [R6V] here?
A: 3.49

Q: With KKREFQFHPIKETVVEEPVDITPY [R6Q] as the variant, how does the protein stability index read?
A: 4.23

Q: For KKREFHFHPIKETVVEEPVDITPY [R6H], which protein stability index is on record?
A: 4.52

Q: Which protein stability index does the source give for KKREFAFHPIKETVVEEPVDITPY [R6A] here?
A: 3.97

Q: For KKREFNFHPIKETVVEEPVDITPY [R6N], which protein stability index is on record?
A: 4.25

Q: For KKREFKFHPIKETVVEEPVDITPY [R6K], which protein stability index is on record?
A: 4.23

Q: Which protein stability index does the source give for KKREFLFHPIKETVVEEPVDITPY [R6L] here?
A: 4.15

Q: Which protein stability index does the source give for KKREFEFHPIKETVVEEPVDITPY [R6E] here?
A: 4.48

Q: With KKREFYFHPIKETVVEEPVDITPY [R6Y] as the variant, how does the protein stability index read?
A: 3.66

Q: With KKREFCFHPIKETVVEEPVDITPY [R6C] as the variant, how does the protein stability index read?
A: 3.87

Q: Which protein stability index does the source give for KKREFSFHPIKETVVEEPVDITPY [R6S] here?
A: 4.31

Q: Which protein stability index does the source give for KKREFDFHPIKETVVEEPVDITPY [R6D] here?
A: 4.24

Q: For KKREFIFHPIKETVVEEPVDITPY [R6I], which protein stability index is on record?
A: 4.01

Q: Which protein stability index does the source give for KKREFFFHPIKETVVEEPVDITPY [R6F] here?
A: 2.57

Q: For KKREFWFHPIKETVVEEPVDITPY [R6W], which protein stability index is on record?
A: 2.55

Q: With KKREFTFHPIKETVVEEPVDITPY [R6T] as the variant, how does the protein stability index read?
A: 4.38

Q: With KKREFPFHPIKETVVEEPVDITPY [R6P] as the variant, how does the protein stability index read?
A: 4.38

Q: For VKREFRFHPIKETVVEEPVDITPY [K1V], which protein stability index is on record?
A: 2.74

Q: Which protein stability index does the source give for RKREFRFHPIKETVVEEPVDITPY [K1R] here?
A: 1.84

Q: With PKREFRFHPIKETVVEEPVDITPY [K1P] as the variant, how does the protein stability index read?
A: 1.66

Q: With QKREFRFHPIKETVVEEPVDITPY [K1Q] as the variant, how does the protein stability index read?
A: 1.97

Q: Which protein stability index does the source give for SKREFRFHPIKETVVEEPVDITPY [K1S] here?
A: 1.8

Q: With YKREFRFHPIKETVVEEPVDITPY [K1Y] as the variant, how does the protein stability index read?
A: 2.12

Q: Which protein stability index does the source give for CKREFRFHPIKETVVEEPVDITPY [K1C] here?
A: 1.81

Q: For NKREFRFHPIKETVVEEPVDITPY [K1N], which protein stability index is on record?
A: 1.94

Q: Which protein stability index does the source give for WKREFRFHPIKETVVEEPVDITPY [K1W] here?
A: 2.1

Q: With EKREFRFHPIKETVVEEPVDITPY [K1E] as the variant, how does the protein stability index read?
A: 2.27

Q: With MKREFRFHPIKETVVEEPVDITPY [K1M] as the variant, how does the protein stability index read?
A: 1.96

Q: For AKREFRFHPIKETVVEEPVDITPY [K1A], which protein stability index is on record?
A: 2.29

Q: Which protein stability index does the source give for HKREFRFHPIKETVVEEPVDITPY [K1H] here?
A: 1.73

Q: With LKREFRFHPIKETVVEEPVDITPY [K1L] as the variant, how does the protein stability index read?
A: 2.25

Q: With IKREFRFHPIKETVVEEPVDITPY [K1I] as the variant, how does the protein stability index read?
A: 1.65

Q: Which protein stability index does the source give for FKREFRFHPIKETVVEEPVDITPY [K1F] here?
A: 2.04

Q: Which protein stability index does the source give for GKREFRFHPIKETVVEEPVDITPY [K1G] here?
A: 1.69

Q: With DKREFRFHPIKETVVEEPVDITPY [K1D] as the variant, how does the protein stability index read?
A: 2.01

Q: For TKREFRFHPIKETVVEEPVDITPY [K1T], which protein stability index is on record?
A: 2.01
